Where a chain is given by its changes, count along the chain named. Names may count otherwise. One block for each molecule: values may come before it. Ends that are not written are not given here.
Key:
GSK3β [1] = biological target: T1, GSK3β (Mus musculus, UniProt Q9WV60); assay: In vitro GSK3β activity assay with synthetic peptides (phosphorylation of primed β-catenin N-terminal fragment); format: biochemical; settings: at 100 µM; primed β-catenin N-terminal fragment 7 µM, 1 mM ATP, pH 8.0, 30 min at 37°C; 4–7 independent experiments
T1 construct: The catalytic domains of mouse GSK3β (residues 27–393) and CK1ε (residues 1–319) were expressed and purified; made in house
Source text: We synthesized one dually-phosphorylated (NPPPpSPApTERSH, where pS or pT designates a phosphorylated Ser or Thr residue), two singly-phosphorylated (NPPPSPApTERSH and NPPPp[…]) and one non-phosphorylated ([…]) peptides derived from the first PPPSPxS motif of LRP6 (Fig. 1A). To measure the GSK3β activity toward β-catenin in vitro, we utilized a β-catenin N-terminal fragment (residues 1–133), whose Ser45 was prephosphorylated by CK1, as a substrate (Ha et al., 2004). Each synthetic peptide was added to a reaction mixture containing the purified GSK3β enzyme and the substrate β-catenin N-terminal fragment. The GSK3β activity was determined through measurement of the intensity of the supershifted (retarded) β-catenin bands (Fig. S3), which represent the phosphorylated product species (Fig. S4), on an SDS-polyacrylamide gel (Figs. S3, S4, S5, S6, S7). […] This corresponds well with the results of Zeng et al., who reported that the first Ser residue in the PPPSPxS motif has a more important role in Wnt/β-catenin signaling than the second Ser residue.
The catalytic domains of mouse GSK3β (residues 27–393) and CK1ε (residues 1–319) were expressed and purified as previously described. The N-terminal region (residues 1–133) of β-catenin was expressed in Escherichia coli as a GST-fusion protein with a TEV protease cleavage site and then purified using Glutathione-agarose. Subsequently, the GST tag was cleaved using recombinant TEV protease and was removed by repeated HiTrapQ anion-exchange chromatography. The N-terminal region of β-catenin was then phosphorylated by incubation with the catalytic domain of CK1ε (0.28 mg/ml) at 37°C for 20 min in 50 mM Tris buffer (pH 8.0) containing 10 mM MgCl2, 10 mM 2-mercaptoethanol, and 2 mM phenylmethylsulfonylfluoride. The phosphorylated β-catenin fragment was then further purified using HiTrapQ anion-exchange chromatography to remove the CK1ε enzyme. […]

GSK3β [2] = biological target: T1, GSK3β; assay: Far western binding of GSK3β to GST-fused LRP6 fragments; settings: for Binding of GSK3β: GST-fusion treated with GSK3β and CK1, GSK3β 1 µg/ml, three independent experiments
Source text: We first investigated whether the intracellular region of LRP6 binds to GSK3β in a phosphorylation-dependent manner. To detect binding, we used recombinant GST-fused LRP6 fragments (miniCL, miniCLMT, PPPSPxS, PPPAPxS; Fig. 1A) and GSK3β proteins in a far western binding assay. This assay is appropriate as the LRP6 cytoplasmic region is expected to be natively unstructured and therefore should not suffer from denaturation artifacts. Prior to the binding reaction, the GST-fused LRP6 fragments were phosphorylated by GSK3β and CK1 and transferred to a PVDF membrane. The membrane was incubated with GSK3β, and bound GSK3β was detected with an anti-GSK3β antibody. GSK3β bound to GST-miniCL and GST-miniCLMT, but not GST-PPPSPxS or GST-PPPAPxS (Fig. 4). […] Also, given the measured Ki value of the single PPPSPxS motif, it was expected that the single PPPSPxS motif might exert a limited role in recruiting the GSK3β.
Figure 4 Phosphorylation-dependent binding of the LRP6 intracellular region to GSK3β in the absence and presence of Axin. (A) GST (Lane 1), GST-fused miniCL (Lane 3; GST-miniCL), GST-fused miniCLMT (Lane 5; GST-miniCLMT), and their phosphorylated forms (Lanes 2, 4, 6; indicated by “phos”) were loaded onto an SDS-polyacrylamide gel, and then transferred to PVDF membrane (Left top). […] The phosphorylated protein bands show an upshifted mobility on the gel. The PVDF membrane was incubated with 1 µg/ml of GSK3β to allow GSK3β to bind to the proteins in the membrane. The bound GSK3β was visualized on the transferred proteins by western blotting using an anti-GSK3β antibody (Left bottom), and the GSK3β protein used to obtain the phosphorylated forms of each protein is indicated by GSK3β*. The band intensities of bound GSK3β were measured from the three independent experiments (Right). […] The phosphorylated GST-fused miniCL was transferred to PVDF membrane, and the membrane was incubated with GSK3β (0.1 µg/ml) and GST-fused Axin GBD domain protein (0, 10 µM). Error bars indicate the standard deviation from three independent experiments. […]

[3] = biological target: T2, catalytic domain of mouse GSK3β (residues 27–393) (mouse, UniProt Q9WV60 27-393); assay: far-Western, overlay or dot blot; GST-fused LRP6 fragments (with or without prior treatment with GSK3β and CK1) run on SDS-PAGE and transferred to PVDF; membrane incubated 3 h with 1 µg/ml GSK3β in 5% skim milk in TBST (20 mM Tris pH 7.6, 137 mM NaCl, 0.05% Tween 20); bound GSK3β detected with anti-GSK3β antibody; settings: both partners purified
T2 construct: GSK3β (glycogen synthase kinase 3 beta), mouse, catalytic domain, residues 27-393; also called recombinant GSK3β catalytic domain; source: recombinant, expressed and purified as previously described [32]

Inhibitory effect on GSK3β activity toward β-catenin (GSK3β [1]): only a marginal inhibitory effect
Molecule: NPPPSPApTERSH [PPPSPx(p)S, singly-phosphorylated peptide (second Ser/Thr) derived from the first PPPSPxS motif of LRP6]

Effect of S1490A mutation on GSK3β binding (GSK3β [2]): does not affect binding
Binding of GSK3β (GSK3β [2]): bound
Molecule: GST-miniCLMT: GST-fused miniCLMT, residues 1470–1510 with substitution at Ser1490 with Ala (SSSSSSTKGTYFPAILNPPPAPATERSHYTMEFGYSSNSPS; also: GST fusion (GST left off))

Binding of GSK3β (GSK3β [2]): bound
Molecule: GST-miniCL: GST-fused human LRP6 miniCL, residues 1470–1510 (SSSSSSTKGTYFPAILNPPPSPATERSHYTMEFGYSSNSPS; also: GST fusion (GST left off))

binding result [3]: binds
B1: GST-fused LRP6 miniCL (residues 1470–1510 of human LRP6), phosphorylated by GSK3β and CK1 (domain or fragment, UniProt O75581 1470-1510, looked up)
chain: SSSSSSTKGTYFPAILNPPPSPATERSHYTMEFGYSSNSPS
modifications: also: GST-fused, end not given here, phosphorylated by GSK3β and CK1ε, sites not given here
notes: LRP6, human, intracellular fragment miniCL, residues 1470-1510 (Ser/Thr rich cluster and first PPPSPxS motif); also called phosphorylated GST-miniCL; GST-miniCL phos; source: E. coli, purified (Glutathione-agarose, HiTrapQ), then phosphorylated in vitro with recombinant GSK3β and CK1ε

binding result [3]: binds
B2: GST-fused LRP6 miniCLMT (residues 1470–1510 of human LRP6, S1490A), phosphorylated by GSK3β and CK1 (domain or fragment, UniProt O75581 1470-1510, looked up)
chain: B1 chain with S21A
modifications: also: GST-fused, end not given here, phosphorylated in vitro by GSK3β and CK1ε, sites not given here
notes: LRP6, human, intracellular fragment miniCL, residues 1470-1510, with Ser1490 replaced by Ala; also called phosphorylated GST-miniCLMT; GST-miniCLMT phos; source: E. coli, purified (Glutathione-agarose, HiTrapQ), then phosphorylated in vitro with recombinant GSK3β and CK1ε

binding result [3]: binds
B3: GST-fused LRP6 miniCLMT (residues 1470–1510 of human LRP6, S1490A), not phosphorylated (domain or fragment, UniProt O75581 1470-1510, looked up)
chain: B1 chain with S21A
modifications: also: GST fusion (GST left off)
notes: LRP6, human, intracellular fragment miniCL, residues 1470-1510, with Ser1490 replaced by Ala; also called GST-miniCLMT; source: E. coli, purified (Glutathione-agarose, HiTrapQ)

Source: publication PMC2603313, “Direct Inhibition of GSK3β by the Phosphorylated Cytoplasmic Domain of LRP6 in Wnt/β-Catenin Signaling” (PLoS ONE, 2008)
